Data as given in the supplement of paper PMC9732359.
± gives the uncertainty stated by the source.

Assay: protein stability index of a GFP-peptide fusion (yeast GPS) (PSI 1-4); higher = more stable; sorted into four equal gates, so the index is relative within each strain
Settings: pdr5∆
Summary of the method: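 Yeast carrying a pooled library were grown to mid-log phase in leucine-free medium. Each library plasmid expresses Cherry and has a tiled 17-residue yeast protein peptide fused downstream of GFP. Cells were sorted into four equal gates by GFP/Cherry ratio, and plasmids from each gate were PCR-amplified, Illumina-sequenced and assigned to strains by barcode. Summing, across gates, the read frequency times the gate number gave each peptide's protein stability index.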

Sequence	protein stability index
NTSIAQFDIQSPLYMDT [YML103C/NUP188]	2.89 ± 0.049
NTSLNINGWKFESLPLK [SWP82]	2.96 ± 0.05
NTSSLQSFQNPFTASQS [YIL149C/MLP2]	2.02 ± 0.038
NVASLVRVQFQFTGFLL [GRR1]	1.73 ± 0.075
NVDYYNVAHRIKEDIKK [SNF2]	3.17 ± 0.066
NVEEEQIVPYIEKLTDG [BRR2]	3.06 ± 0.06
NVEMEEDVLVNQILMSV [RPL1A]	3.14 ± 0.1
NVETYEQILQWVTEVLG [BRR2]	1.75 ± 0.06
NVGLCITIYDLLTVEEG [RPC25]	1.26 ± 0.067
NVIITGSTSLIEGMEQR [ARP7]	2.49 ± 0.075
NVKVIMATNRADTLDPA [RPT3]	2.07 ± 0.086
NVLFLRLFNNVKIHSQE [SRP72]	2.06 ± 0.04
NVTLVNGKRRMNPGPSV [RPS30A]	2.79 ± 0.035
NVVNYLSINKNFINQED [RPC17]	1.83 ± 0.061
NWRLVEVGRVVLIKKGQ [RPL14A]	1.74 ± 0.13
NYGSSLQWHAMIELICS [AAR2]	1.22 ± 0.13
NYNHLLPTRYTLDVEAF [RPL27A]	1.61 ± 0.047
NYPQDEINAVFNELCDP [POP1]	3.04 ± 0.051
NYPQLTEDILKEISTRV [YCS4]	3.11 ± 0.17
NYTDLIWFPEDFISPEL [MED1]	2.61 ± 0.058
PAELDLRGSLLSRKPSD [RPC82]	3.38 ± 0.12
PAFKPTEKKFTKEQYAA [RPL5]	3.12 ± 0.083
PAKSASARGSYLRVSFK [RPL17A]	3.27 ± 0.051
PDILATDLIREKTMMTF [YCS4]	3.08 ± 0.081
PDLDTECFISMQSTSPA [SWI1]	3.02 ± 0.13

Sequence	protein stability index
PDMYERKVENIRTILVN [MED7]	1.65 ± 0.045
PDNSIFGDTKSESKQLG [SWI3]	3.23 ± 0.091
PDPRSTVIPEDEEIIQL [RPO21]	2.75 ± 0.087
PDYYVSILSFVDKELLE [RPT2]	2.55 ± 0.048
PEETPLEELAETFQDTF [FAS2]	2.96 ± 0.062
PEFAGYSKAAEPHAVSL [ASC1]	2.44 ± 0.063
PEGRLYQVEYAFKATNQ [SCL1]	2.88 ± 0.067
PEKEASSATIVLCLTRS [YCG1]	2.5 ± 0.061
PETCLFVSYFGKQIKST [YML103C/NUP188]	2.45 ± 0.039
PFMLQWGIPLIKELRSK [FAS1]	1.63 ± 0.074
PFTDRSVVRGNTFKVLS [COB]	2.56 ± 0.18
PGFDEFQLIDMKDKEIN [CSI1]	3 ± 0.11
PGNGKHASENISLSFSR [SIR4]	2.88 ± 0.062
PGPRLLYENIASSPIIL [RPN10]	2.29 ± 0.038
PGRLDRKIEFPSLRDRR [RPT3]	3.31 ± 0.061
PGTITHGMFSSASVRAL [FAS1]	2.54 ± 0.064
PGTNGKVKKPLKYLSVE [PRE7]	3.5 ± 0.14
PGTTSTGNNNNIATQQN [GAL11]	2.69 ± 0.081
PHELTESVLPAARYDYA [QCR2]	1.92 ± 0.046
PHHNQSPRNTYQCAMGK [RET1]	2.97 ± 0.14
PHLFVNGDLTVSLCAKN [SSN2]	2.12 ± 0.081
PHQSPDATRVFVNGVWH [RPB2]	3.05 ± 0.056
PHTPVTRKGYIPSSKYA [YLR018C/POM34]	3.18 ± 0.089
PIAASTDLPIETAAMAS [RPN1]	1.64 ± 0.052
PIDAGLNEAPFPEENII [MCD1]	2.88 ± 0.054

Sequence	protein stability index
PIDNNIIFASTKLGFTF [SNU114]	2.52 ± 0.047
PIFSFGKQEENGDEGDD [YOR098C/NUP1]	3.65 ± 0.17
PIIATYGNRAEQFLETD [SRP68]	2.48 ± 0.063
PINLQNGEEDEVALFSQ [YLR335W/NUP2]	3.39 ± 0.17
PIPIPAFADRLGQYVQA [PRE10]	1.95 ± 0.062
PIPSSETKADGILLETI [RRP6]	2.36 ± 0.065
PISKHSKQAIYTRAAAS [RPS25B]	2.63 ± 0.054
PITASTSRVFAKIISKA [YML103C/NUP188]	3.02 ± 0.14
PIVIIFRALGIIPDGEI [RPB2]	1.79 ± 0.056
PKAMTDTDNECVAAWGV [HRT1]	3.48 ± 0.17
PKEPRLKSQMDTSKALL [SKI6]	3.17 ± 0.18
PKSSPLKKNNYNSFPHS [SIR4]	3.08 ± 0.076
PKYAKQKDKSDTYKRFK [ISW2]	3.1 ± 0.1
PKYRDNLATWYHSAGGR [SSN3]	3.28 ± 0.08
PLASEESLTNSNMFDNS [YGL100W/SEH1]	3.02 ± 0.19
PLIQNSMRTIMKANPAL [PRP8]	2.58 ± 0.22
PLKYAPHLPFSKSENPV [SWI3]	2.95 ± 0.078
PLNVLQDQYKEGIKVVD [SNF2]	2.46 ± 0.11
PLPHRVQKSTKTFSYKR [RPL20A]	2.93 ± 0.051
PLPVETPRDRRKSVFAP [SSN2]	2.31 ± 0.077
PLQNNLPELWALLNFVL [SNF2]	2.64 ± 0.045
PLQVARCTKIIKGNGES [RPT1]	2.96 ± 0.081
PLRLRLYDNFVSKFYDK [RPN9]	3.18 ± 0.068
PLSNEVFEISENNSDSN [SWI1]	3.04 ± 0.068
PMPIITFLSEWGMEPLE [RPB2]	2.96 ± 0.09

Sequence	protein stability index
PMYKELWINYIKELLNI [POP4]	1.08 ± 0.11
PNADDIRDSIPQMDSFD [DIS3]	2.86 ± 0.089
PNHIPSVNPSNKPIKRM [SWP82]	2.96 ± 0.057
PNIRTMSGTTKRLNGKR [SSN2]	2.74 ± 0.22
PNLLFSMCGFEVRILPR [PRP8]	1.9 ± 0.047
PNVFDKDSYVRIANIEQ [YDL088C/ASM4]	3.09 ± 0.047
PPETKLPYPTYWSDKKA [SNF5]	2.82 ± 0.062
PPKHTELLLTTLSVSHG [SSN2]	1.8 ± 0.038
PPPGLDELETKAEKKVE [PRP8]	3.21 ± 0.048
PPQLANQQQPPQDILSK [SNF11]	2.87 ± 0.069
PPSVTLQDWQREDEFGS [YDL088C/ASM4]	3.31 ± 0.074
PQAILAKNSIIDSSNLP [SWI1]	2.42 ± 0.061
PQGRQSTTFADCPVVPA [RPC40]	2.92 ± 0.078
PQGSTTNGGLFGSGTQN [YGR119C/NUP57]	3.27 ± 0.058
PQRLQRKRHQRALKVRN [RPS6A]	2.9 ± 0.069
PRFNRENKVSPADAAKK [RPS26A]	2.73 ± 0.17
PRGTAKLIIHRKNDNAN [SMC3]	2.34 ± 0.18
PRSPGRSPTRRLELLQL [SMC4]	2.12 ± 0.15
PRVIEPVYTAQWSATWI [PRP8]	2.17 ± 0.054
PSENLLNIRIQTYGETT [RPC19]	1.18 ± 0.13
PSGAKKVISSDARGVIG [RPL2A]	3.13 ± 0.066
PSILEDSLENNEGVPSP [FAS1]	2.79 ± 0.22
PSIVFIDEIDAIGTKRY [RPT2]	2.28 ± 0.14
PSLLLQKDQDGRIPLHW [NAS6]	3.38 ± 0.21
PSLRKLIESGIGTHHAG [BRR2]	3.38 ± 0.28
